Data as given in patent publication US20260242419A1, “A CYCLIC PEPTIDE FOR TRAPPING INTERLEUKIN-1 BETA” (Merck Sharp & Dohme LLC, priority 2023, published 2026).
Starred links: 1 amine or outer side, 2 acyl side, 3 side chain; linkers in the order of their positions; H or OH if unused. Non-standard residues stand in square brackets, D forms with d. dProc4CH21Naph4F = (2R,4R)-4-[(4-fluoro-1-naphthyl)methyl]pyrrolidine-2-carboxylic acid, O=C([C@H]1C[C@@H](Cc2ccc(F)c3ccccc23)CN1[*:1])[*:2]; Bip4CONMe2 = (2S)-2-amino-3-[4-[4-(dimethylcarbamoyl)phenyl]phenyl]propanoic acid, CN(C)C(=O)c1ccc(-c2ccc(C[C@H](N[*:1])C(=O)[*:2])cc2)cc1; dProc3Bn4Cl = (2R,3S)-3-[(4-chlorophenyl)methyl]pyrrolidine-2-carboxylic acid, O=C([C@H]1[C@@H](Cc2ccc(Cl)cc2)CCN1[*:1])[*:2]; dProc4Bn4Cl = (2R,4R)-4-[(4-chlorophenyl)methyl]pyrrolidine-2-carboxylic acid, O=C([C@H]1C[C@@H](Cc2ccc(Cl)cc2)CN1[*:1])[*:2]; TyrEtNAc = (2S)-3-[4-(2-acetamidoethoxy)phenyl]-2-amino-propanoic acid, CC(=O)NCCOc1ccc(C[C@H](N[*:1])C(=O)[*:2])cc1; dProc3CH24Pal = (2R,3S)-3-(4-pyridylmethyl)pyrrolidine-2-carboxylic acid, O=C([C@H]1[C@@H](Cc2ccncc2)CCN1[*:1])[*:2]; DabMe3 = [(3S)-3-amino-4-oxo-butyl]-trimethyl-ammonium, C[N+](C)(C)CC[C@H](N[*:1])C(=O)[*:2]; 4PyrimAla = (2S)-2-amino-3-pyrimidin-4-yl-propanoic acid, O=C([C@H](Cc1ccncn1)N[*:1])[*:2]; Phe4pcCCA = (1R,4s)-4-(4-((S)-2-amino-2-carboxyethyl)phenyl)cyclohexane-1-carboxylic acid; Ala3Isoxa5Me = 3-(5-methylisoxazol-3-yl)alanine, Cc1cc(C[C@H](N[*:1])C(=O)[*:2])no1; Ala2Oxa = 3-(oxazol-2-yl)alanine, O=C([C@H](Cc1ncco1)N[*:1])[*:2]; dPro(4R-(4-pyridylmethyl)) = O=C(O)[C@H]1C[C@@H](Cc2ccncc2)CN1; Ala(piperidin-4-yl) = O=C([C@H](CC1CCN([*:3])CC1)N[*:1])[*:2]; Trp(βS-Me,4-F) = C[C@@H](c1c[nH]c2cccc(F)c12)[C@H](N)C(=O)O; Bip(4'-CONH2) = NC(=O)c1ccc(-c2ccc(C[C@H](N)C(=O)O)cc2)cc1; Bip(4'-COOH) = N[C@@H](Cc1ccc(-c2ccc(C(=O)O)cc2)cc1)C(=O)O; Ala(1-bicyclo(1.1.1)pentyl) = N[C@@H](CC12CC(C1)C2)C(=O)O; dPro(4R-Bzl(4-F)) = O=C(O)[C@H]1C[C@@H](Cc2ccc(F)cc2)CN1; dPro(3S-(4-F-Bn)) = O=C(O)[C@@H]1NCC[C@@H]1Cc1ccc(F)cc1; Ala(morpholin-4-yl) = N[C@@H](CN1CCOCC1)C(=O)O; Ala(pyrimidin-5-yl) = N[C@@H](Cc1cncnc1)C(=O)O; Phe(4-COOH) = N[C@@H](Cc1ccc(C(=O)O)cc1)C(=O)O; Ala(4-Pyridazinyl) = N[C@@H](Cc1ccnnc1)C(=O)O; Ala(2-pyrazinyl) = N[C@@H](Cc1cnccn1)C(=O)O; Bip = N[C@@H](Cc1ccc(-c2ccccc2)cc1)C(=O)O; Pro(cis-4-F) = O=C(O)[C@@H]1C[C@H](F)CN1; Ala(4-THP) = N[C@@H](CC1CCOCC1)C(=O)O; cisHyp = O=C(O)[C@@H]1C[C@H](O)CN1; d(αMeD) = C[C@@](N)(CC(=O)O)C(=O)O; h4Pal = N[C@@H](CCc1ccncc1)C(=O)O; 3Pal = N[C@@H](Cc1cccnc1)C(=O)O; 4Pal = N[C@@H](Cc1ccncc1)C(=O)O; aThr = C[C@H](O)[C@H](N)C(=O)O; d(αMeS) = C[C@@](N)(CO)C(=O)O; Dab = NCC[C@H](N)C(=O)O; Aib = CC(C)(N)C(=O)O; Sar = CNCC(=O)O

B1: SEQ ID NO 314 (peptide)
peptide: cyclo([Bip(4'-COOH)][4Pal][Phe(4-COOH)]G[Pro(cis-4-F)][Trp(βS-Me,4-F)][Aib]SW[Aib][DabMe3]Q[Dab]G[dPro(4R-Bzl(4-F))])
modifications: ring closure inferred; not fully specified (N-terminus); printed as cyclic, Bip4CO2H-4Pal-Phe4COOH-G-Proc4F-sbMeW4F-Aib-S-W-Aib-DabMe3-Q-Dab-G-dProc4Bn4F
B2: SEQ ID NO 313 (peptide)
peptide: cyclo([Bip(4'-COOH)][4Pal][Phe(4-COOH)]G[Pro(cis-4-F)][Trp(βS-Me,4-F)][Aib]SW[d(αMeD)][Ala(4-THP)]Q[Dab]G[dPro(4R-Bzl(4-F))])
modifications: ring closure inferred; not fully specified (N-terminus); printed as cyclic, Bip4CO2H-4Pal-Phe4COOH-G-Proc4F-SbMeW4F-Aib-S-W-daMeD-AlaTHP4-Q-Dab-G-dProc4Bn4F

molecular target: Recombinant human IL-1β (BioLegend 579404) (human, UniProt P01584 117-269); assay: cell-based or functional assay

MRC5 IC50 [nM]	Binder
0.027	cyclo([Bip(4'-COOH)][4Pal][Phe(4-COOH)]G[cisHyp][Trp(βS-Me,4-F)][Aib]SW[Aib][Ala(pyrimidin-5-yl)]Q[Dab]G[dProc3CH24Pal]) (ring closure inferred) [SEQ ID NO 325]
0.017	cyclo([Bip(4'-COOH)][4Pal][Phe(4-COOH)]G[Pro(cis-4-F)][Trp(βS-Me,4-F)][Aib]SW[d(αMeD)][Ala(morpholin-4-yl)]Q[Dab]G[dPro(4R-Bzl(4-F))]) (ring closure inferred) [SEQ ID NO 319]
0.016	cyclo([Bip(4'-COOH)][4Pal][Phe(4-COOH)]G[Pro(cis-4-F)][Trp(βS-Me,4-F)][Aib]SW[d(αMeD)][Ala(pyrimidin-5-yl)]Q[Dab]G[dProc4CH21Naph4F]) (ring closure inferred) [SEQ ID NO 327]
0.018	cyclo([TyrEtNAc][4Pal][Phe(4-COOH)]G[Pro(cis-4-F)][Trp(βS-Me,4-F)][Aib]EW[Aib][Ala3Isoxa5Me]Q[Dab]G[dPro(4R-(4-pyridylmethyl))]) (ring closure inferred; not fully specified (N-terminus)) [SEQ ID NO 315]
0.02	cyclo([TyrEtNAc][4Pal][Phe(4-COOH)]G[Pro(cis-4-F)][Trp(βS-Me,4-F)][Aib]EW[Aib][Ala2Oxa]Q[Dab]G[dPro(4R-(4-pyridylmethyl))]) (ring closure inferred; not fully specified (N-terminus)) [SEQ ID NO 316]
0.025	cyclo([TyrEtNAc][4Pal][Phe(4-COOH)]G[Pro(cis-4-F)][Trp(βS-Me,4-F)][Aib]EW[Aib][h4Pal]Q[Dab]G[dPro(4R-(4-pyridylmethyl))]) (ring closure inferred) [SEQ ID NO 318]
0.022	cyclo([Phe4pcCCA][Ala(1-bicyclo(1.1.1)pentyl)][Phe(4-COOH)]G[Pro(cis-4-F)][Trp(βS-Me,4-F)][Aib]SW[d(αMeD)][aThr]Q[Dab]G[dPro(4R-(4-pyridylmethyl))]) (ring closure inferred) [SEQ ID NO 334]
0.018	cyclo([Bip4CONMe2][4Pal][Phe(4-COOH)]G[Pro(cis-4-F)][Trp(βS-Me,4-F)][Aib]SW[d(αMeS)][Ala(pyrimidin-5-yl)]Q[Dab]G[dPro(4R-(4-pyridylmethyl))]) (ring closure inferred) [SEQ ID NO 338]
0.02	B1
0.015	cyclo([TyrEtNAc][4Pal][Phe(4-COOH)]G[Pro(cis-4-F)][Trp(βS-Me,4-F)][Aib]EW[Aib]HQ[Dab]G[dPro(4R-(4-pyridylmethyl))]) (ring closure inferred) [SEQ ID NO 317]
0.022	cyclo([Phe4pcCCA][Ala(1-bicyclo(1.1.1)pentyl)][Phe(4-COOH)]G[Pro(cis-4-F)][Trp(βS-Me,4-F)][Aib]SW[d(αMeD)][Ala(pyrimidin-5-yl)]Q[Dab]G[dPro(4R-(4-pyridylmethyl))]) (ring closure inferred) [SEQ ID NO 335]
0.008	cyclo([Bip(4'-COOH)][4Pal][Phe(4-COOH)]G[Pro(cis-4-F)][Trp(βS-Me,4-F)][Aib]SW[d(αMeD)][Ala(pyrimidin-5-yl)]Q[Dab]G[dProc3CH24Pal]) (ring closure inferred) [SEQ ID NO 328]
0.013	cyclo([Bip(4'-COOH)][4Pal][Phe(4-COOH)]G[Pro(cis-4-F)][Trp(βS-Me,4-F)][Aib]SW[d(αMeD)][Ala(4-Pyridazinyl)]Q[Dab]G[dPro(4R-Bzl(4-F))]) (ring closure inferred) [SEQ ID NO 322]
0.012	cyclo([Bip(4'-COOH)][4Pal][Phe(4-COOH)]G[Pro(cis-4-F)][Trp(βS-Me,4-F)][Aib]SW[d(αMeD)][3Pal]Q[Dab]G[dPro(4R-Bzl(4-F))]) (ring closure inferred) [SEQ ID NO 323]
0.015	cyclo([Bip(4'-COOH)][4Pal][Phe(4-COOH)]G[Pro(cis-4-F)][Trp(βS-Me,4-F)][Aib]SW[d(αMeD)][Ala(2-pyrazinyl)]Q[Dab]G[dPro(4R-Bzl(4-F))]) (ring closure inferred) [SEQ ID NO 321]
0.015	B2
0.013	cyclo([Bip(4'-COOH)][4Pal][Phe(4-COOH)]G[Pro(cis-4-F)][Trp(βS-Me,4-F)][Aib]SW[d(αMeD)][4PyrimAla]Q[Dab]G[dPro(4R-Bzl(4-F))]) (ring closure inferred) [SEQ ID NO 332]
0.015	cyclo([Bip(4'-COOH)][4Pal][Phe(4-COOH)]G[Pro(cis-4-F)][Trp(βS-Me,4-F)][Aib]SW[d(αMeD)][Ala(piperidin-4-yl)]Q[Dab]G[dPro(4R-Bzl(4-F))]) (ring closure inferred) [SEQ ID NO 320]
0.011	cyclo([Bip(4'-COOH)][4Pal][Phe(4-COOH)]G[Pro(cis-4-F)][Trp(βS-Me,4-F)][Aib]SW[Aib][Ala(pyrimidin-5-yl)]Q[Dab]G[dProc3CH24Pal]) (ring closure inferred) [SEQ ID NO 326]
0.024	cyclo([Bip(4'-CONH2)][4Pal][Phe(4-COOH)]G[Pro(cis-4-F)][Trp(βS-Me,4-F)][Aib]SW[d(αMeS)][Ala(pyrimidin-5-yl)]Q[Dab]G[dPro(4R-(4-pyridylmethyl))]) (ring closure inferred) [SEQ ID NO 339]
0.009	cyclo([Bip(4'-COOH)][4Pal][Phe(4-COOH)]G[Pro(cis-4-F)][Trp(βS-Me,4-F)][Aib]SW[d(αMeD)][Ala(pyrimidin-5-yl)]Q[Dab]G[dProc4Bn4Cl]) (ring closure inferred) [SEQ ID NO 329]
0.022	cyclo([Bip(4'-COOH)][4Pal][Phe(4-COOH)]G[Pro(cis-4-F)][Trp(βS-Me,4-F)][Aib]SW[d(αMeD)][aThr]Q[Dab][Sar][dPro(4R-(4-pyridylmethyl))]) (ring closure inferred) [SEQ ID NO 337]
0.013	cyclo([Bip(4'-COOH)][4Pal][Phe(4-COOH)]G[Pro(cis-4-F)][Trp(βS-Me,4-F)][Aib]SW[d(αMeD)][4Pal]Q[Dab]G[dPro(4R-Bzl(4-F))]) (ring closure inferred) [SEQ ID NO 324]
0.008	cyclo([Bip(4'-COOH)][4Pal][Phe(4-COOH)]G[Pro(cis-4-F)][Trp(βS-Me,4-F)][Aib]SW[d(αMeD)][Ala(pyrimidin-5-yl)]Q[Dab]G[dProc3Bn4Cl]) (ring closure inferred) [SEQ ID NO 330]
0.011	cyclo([Bip(4'-COOH)][4Pal][Phe(4-COOH)]G[Pro(cis-4-F)][Trp(βS-Me,4-F)][Aib]SW[d(αMeD)][Ala(pyrimidin-5-yl)]Q[Dab]G[dPro(3S-(4-F-Bn))]) (ring closure inferred) [SEQ ID NO 331]
0.022	cyclo([Bip][4Pal][Phe(4-COOH)]G[Pro(cis-4-F)][Trp(βS-Me,4-F)][Aib]SW[d(αMeD)][Ala(pyrimidin-5-yl)]Q[Dab]G[dPro(4R-(4-pyridylmethyl))]) (ring closure inferred) [SEQ ID NO 333]
0.021	cyclo([Bip][4Pal][Phe(4-COOH)]G[Pro(cis-4-F)][Trp(βS-Me,4-F)][Aib]SW[d(αMeS)][Ala(pyrimidin-5-yl)]Q[Dab]G[dPro(4R-(4-pyridylmethyl))]) (ring closure inferred) [SEQ ID NO 340]
0.023	cyclo([TyrEtNAc][4Pal][Phe(4-COOH)]G[Pro(cis-4-F)][Trp(βS-Me,4-F)][Aib]EW[Aib]FQ[Dab]G[dPro(4R-(4-pyridylmethyl))]) (ring closure inferred) [SEQ ID NO 336]
